Results reported in patent publication US20240116985A1 (published 2024).
Each block holds one binder with its values, some of them ahead of it. Starred links: 1 amine or outer side, 2 acyl side, 3 side chain; linkers in the order of their positions; H or OH if unused. Positions of bridges follow the written chain, without caps; N, C: chain ends. Non-standard residues stand in square brackets, D forms with d. Primed or numbered codes have the meaning given here. B5(10) = 2-amino-2-(pent-4-en-1-yl)hept-6-enoic acid, bis(4-pentenyl)glycine, stitching residue bearing both staples, C=CCCCC(CCCC=C)(N[*:1])C(=O)[*:2]; PyrS2″ = (S)-3-amino-1-((pent-4-en-1-yloxy)carbonyl)pyrrolidine-3-carboxylic acid (stapling residue), C=CCCCOC(=O)N1CC[C@@](N[*:1])(C(=O)[*:2])C1; B5(18) = 2,2-bis(4-pentenyl)glycine (2-amino-2-(pent-4-en-1-yl)hept-6-enoic acid), stitching residue, C=CCCCC(CCCC=C)(N[*:1])C(=O)[*:2]; B5(21) = 2-amino-2-(pent-4-en-1-yl)hept-6-enoic acid, bis(4-pentenyl)glycine (stitching residue), C=CCCCC(CCCC=C)(N[*:1])C(=O)[*:2]; PyrS2 = (S)-3-amino-1-((pent-4-en-1-yloxy)carbonyl)pyrrolidine-3-carboxylic acid, C=CCCCOC(=O)N1CC[C@@](N[*:1])(C(=O)[*:2])C1; Phe(2-Cl) = N[C@@H](Cc1ccccc1Cl)C(=O)O; Bta = N[C@@H](Cc1csc2ccccc12)C(=O)O; αAllylPro = C=CC[C@@]1(C(=O)O)CCCN1; tBuAla = CC(C)(C)C[C@H](N)C(=O)O; S8 = C=CCCCCCC[C@](C)(N)C(=O)O

Legend:
B-cat-Halo [1] = target: T1, B-cat-Halo (UniProt P35222 1-781); assay: NanoBRET Abs IC50 in HEK293 cells; Bcat-Halo, TCF4-Luc as competitor
T1 construct: Expressed by transfection in HEK293 cells for the NanoBRET assay; also called beta-catenin HaloTag NanoBRET construct; not shown: HaloTag
T1 sequence (looked up): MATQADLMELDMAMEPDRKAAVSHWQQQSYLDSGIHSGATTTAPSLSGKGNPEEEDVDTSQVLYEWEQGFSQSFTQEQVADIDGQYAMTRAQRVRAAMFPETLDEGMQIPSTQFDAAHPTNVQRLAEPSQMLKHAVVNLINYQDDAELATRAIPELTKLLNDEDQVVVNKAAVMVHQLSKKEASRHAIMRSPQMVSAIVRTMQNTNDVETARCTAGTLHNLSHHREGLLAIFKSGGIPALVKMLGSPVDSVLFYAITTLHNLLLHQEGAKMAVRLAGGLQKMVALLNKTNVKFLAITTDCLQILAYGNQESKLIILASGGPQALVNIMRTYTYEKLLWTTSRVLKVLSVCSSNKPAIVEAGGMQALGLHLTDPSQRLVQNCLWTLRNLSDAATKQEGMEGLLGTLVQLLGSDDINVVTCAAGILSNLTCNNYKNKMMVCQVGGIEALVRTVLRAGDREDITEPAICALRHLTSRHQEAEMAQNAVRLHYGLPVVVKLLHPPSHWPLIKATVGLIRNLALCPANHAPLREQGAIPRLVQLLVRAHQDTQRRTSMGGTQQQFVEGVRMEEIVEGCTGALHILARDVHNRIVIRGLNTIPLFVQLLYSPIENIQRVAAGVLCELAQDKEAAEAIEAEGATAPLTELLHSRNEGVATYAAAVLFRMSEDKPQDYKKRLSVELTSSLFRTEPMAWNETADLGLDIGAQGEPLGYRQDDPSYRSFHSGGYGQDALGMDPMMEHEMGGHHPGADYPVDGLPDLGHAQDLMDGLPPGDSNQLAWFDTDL

[2] = target: T2, full-length beta-Catenin (Uniprot ID P35222) (Homo sapiens (Human), UniProt P35222 1-781); assay: fluorescence polarization competition; full-length beta-catenin + 5FAM-TCF4(10-53) probe
T2 construct: also called bCat; B-Catenin
T2 sequence: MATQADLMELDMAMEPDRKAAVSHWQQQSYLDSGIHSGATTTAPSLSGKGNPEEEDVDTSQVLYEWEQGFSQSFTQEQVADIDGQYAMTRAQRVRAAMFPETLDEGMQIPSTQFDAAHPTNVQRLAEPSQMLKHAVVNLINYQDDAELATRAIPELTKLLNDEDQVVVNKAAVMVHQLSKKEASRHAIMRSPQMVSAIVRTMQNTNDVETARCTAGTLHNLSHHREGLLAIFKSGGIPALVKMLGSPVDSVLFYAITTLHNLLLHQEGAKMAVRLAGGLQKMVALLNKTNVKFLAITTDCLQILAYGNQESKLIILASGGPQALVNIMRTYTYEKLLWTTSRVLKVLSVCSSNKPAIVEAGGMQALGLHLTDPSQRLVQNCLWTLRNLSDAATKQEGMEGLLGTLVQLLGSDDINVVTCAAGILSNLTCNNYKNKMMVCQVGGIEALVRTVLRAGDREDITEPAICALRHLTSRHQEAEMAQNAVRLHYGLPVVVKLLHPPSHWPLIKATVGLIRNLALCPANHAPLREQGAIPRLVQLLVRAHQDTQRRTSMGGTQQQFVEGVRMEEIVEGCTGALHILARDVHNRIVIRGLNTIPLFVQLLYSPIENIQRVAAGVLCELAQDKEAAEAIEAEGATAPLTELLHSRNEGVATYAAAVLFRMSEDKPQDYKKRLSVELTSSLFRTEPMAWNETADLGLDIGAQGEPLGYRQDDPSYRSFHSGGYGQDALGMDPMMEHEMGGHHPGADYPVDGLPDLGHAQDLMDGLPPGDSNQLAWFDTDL
Description: The plate was incubated protected from light for 60 minutes at 20° C. prior to read. Reads were performed on a CLARIOstar plate reader (BMG Labtech) in duplicate, and data were fitted to a 1:1 binding model with hill slope using an in-house script. All provided concentrations are final concentrations.

B-cat-Halo [3] = target: T3, B-cat-Halo (UniProt P35222 1-781); assay: cell-based or functional assay
T3 sequence (looked up): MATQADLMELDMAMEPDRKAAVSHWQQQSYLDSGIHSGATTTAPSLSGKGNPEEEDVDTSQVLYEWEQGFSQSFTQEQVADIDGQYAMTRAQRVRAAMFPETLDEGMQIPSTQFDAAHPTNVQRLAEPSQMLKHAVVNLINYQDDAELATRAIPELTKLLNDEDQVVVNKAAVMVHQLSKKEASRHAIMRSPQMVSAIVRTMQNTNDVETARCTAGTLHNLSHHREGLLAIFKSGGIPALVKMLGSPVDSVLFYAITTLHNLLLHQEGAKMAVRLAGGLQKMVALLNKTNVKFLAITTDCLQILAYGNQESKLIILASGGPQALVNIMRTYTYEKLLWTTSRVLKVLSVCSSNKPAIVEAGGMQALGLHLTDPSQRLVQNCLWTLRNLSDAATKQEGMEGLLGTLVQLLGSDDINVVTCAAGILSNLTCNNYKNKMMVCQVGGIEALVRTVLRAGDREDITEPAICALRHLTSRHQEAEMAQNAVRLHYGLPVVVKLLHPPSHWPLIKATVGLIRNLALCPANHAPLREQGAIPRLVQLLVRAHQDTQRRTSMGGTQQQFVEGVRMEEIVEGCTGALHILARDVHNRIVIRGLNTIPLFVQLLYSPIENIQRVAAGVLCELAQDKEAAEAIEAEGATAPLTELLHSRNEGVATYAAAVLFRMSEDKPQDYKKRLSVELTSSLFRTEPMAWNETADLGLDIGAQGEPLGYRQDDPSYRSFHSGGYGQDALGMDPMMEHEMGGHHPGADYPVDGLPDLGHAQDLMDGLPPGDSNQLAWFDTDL

[4] = target: T4, beta-catenin in DLD1 TCF/LEF luciferase reporter cells (UniProt P35222 1-781); assay: cell-based or functional assay
T4 sequence (looked up): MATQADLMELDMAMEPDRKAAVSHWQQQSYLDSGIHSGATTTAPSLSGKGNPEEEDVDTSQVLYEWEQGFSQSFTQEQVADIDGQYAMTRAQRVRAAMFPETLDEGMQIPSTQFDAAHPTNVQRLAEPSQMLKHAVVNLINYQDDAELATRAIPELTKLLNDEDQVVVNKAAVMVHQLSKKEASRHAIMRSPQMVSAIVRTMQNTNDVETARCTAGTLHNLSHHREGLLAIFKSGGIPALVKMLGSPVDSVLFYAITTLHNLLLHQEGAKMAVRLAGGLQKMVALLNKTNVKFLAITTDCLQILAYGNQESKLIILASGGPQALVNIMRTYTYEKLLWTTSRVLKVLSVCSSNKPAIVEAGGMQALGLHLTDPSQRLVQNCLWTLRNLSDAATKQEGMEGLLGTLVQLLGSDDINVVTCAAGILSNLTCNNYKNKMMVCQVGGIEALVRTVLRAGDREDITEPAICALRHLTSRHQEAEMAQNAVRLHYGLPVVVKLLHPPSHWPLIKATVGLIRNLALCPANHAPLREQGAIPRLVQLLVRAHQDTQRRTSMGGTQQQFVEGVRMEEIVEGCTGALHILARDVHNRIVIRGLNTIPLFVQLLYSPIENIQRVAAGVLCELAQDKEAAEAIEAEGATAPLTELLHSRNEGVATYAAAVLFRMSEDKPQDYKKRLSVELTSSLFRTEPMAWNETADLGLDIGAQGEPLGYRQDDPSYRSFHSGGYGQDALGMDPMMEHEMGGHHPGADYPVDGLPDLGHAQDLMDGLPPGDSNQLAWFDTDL

IC50 (B-cat-Halo [1]): 26 µM
B1: I-565 (peptide)
peptide: Ac-[αAllylPro]DL[B5(21)]DDAAFN[S8]F[Bta]H-NH2
modifications: staple 1-4, 4-11; not fully specified
notes: Stapled peptide composition; also called Ac-PL3-Asp-Leu-B5-Asp-Asp-Ala-Ala-Phe-Asn-S8-Phe-BztA-His-NH2

EC50 [2]: 3.79 µM
B2: I-1296 (peptide)
peptide: Ac-[αAllylPro]DA[B5(10)]NTAAFL[PyrS2]F[Bta]Q-NH2
modifications: staple 1-4, 4-11; not fully specified; printed as Ac-PL3-Asp-Ala-B5-Asn-Thr-Ala-Ala-Phe-Leu-PyrS2-Phe-BztA-Gln-NH2

NanoBRET Abs IC50 (B-cat-Halo [3]): 8.9 µM | DLD1 4% Abs IC50 [4]: 5.7 µM
Binder: Ac-[αAllylPro]D[tBuAla][B5(18)]DDAAFT[PyrS2″][Phe(2-Cl)][Bta]S-NH2 (staple 1-4, 4-11) [I-1015]
